Ratio to parent data for four variants are collected here from paper PMC3317499 (2012).

First the molecules themselves.
B1: Myc-Mal-TIR wild type (TIR domain of human MyD88 adaptor-like protein, residues 79-221, double-tagged with His6 and Myc) [human] / GST-MyD88-TIR (TIR domain of human MyD88, residues 148-296, GST fusion) [human] (parent complex)
chain 1: SSRWSKDYDVCVCHSEEDLVAAQDLVSYLEGSTASLRCFLQLRDATPGGAIVSELCQALSSSHCRVLLITPGFLQDPWCKYQMLQALTEAPGAEGCTIPLLSGLSRAAYPPELRFMYYVDGRGPDGGFRQVKEAVMRYLQTLS
chain 2: TTLDDPLGHMPERFDAFICYCPSDIQFVQEMIRQLEQTNYRLKLCVSDRDVLPGTCVWSIASELIEKRCRRMVVVVSDDYLQSKECDFQTKFALSLSPGAHQKRLIPIKYKAMKKEFPSILRFITVCDYTNPCTKSWFWTRLAKALSLP
B2: Myc-Mal-TIR wild type (TIR domain of human MyD88 adaptor-like protein, residues 79-221, double-tagged with His6 and Myc) [human] / GST-TLR4-TIR (TIR domain of human TLR4, residues 670-839, GST fusion) [human] (parent complex)
chain 1: B1 chain 1
chain 2: GENIYDAFVIYSSQDEDWVRNELVKNLEEGVPPFQLCLHYRDFIPGVAIAANIIHEGFHKSRKVIVVVSQHFIQSRWCIFEYEIAQTWQFLSSRAGIIFIVLQKVEKTLLRQQVELYRLLSRNTYLEWEDSVLGRHIFWRRLRKALLDGKSWNPEGTVGTGCNWQEATSI

One test covers variants of B1. The test can be described thus: GST pull-down, quantified Western blot; n = 3 separate experiments; parent: 1; read off a plot.
For the variant chain 1 E30A, the ratio to parent is roughly 0.76.

For chain 1 F39A, the ratio to parent is roughly 0.42.

Variants of B2 are the subject of the next test. The test is described as above.
Regarding chain 1 F39A, the ratio to parent is roughly 0.24.

Regarding chain 1 E30A, the ratio to parent was roughly 0.39.
